Reference: US20220306713A1

Columns and labels:
[1] = biological target: mouse PD-L1 on the surface of mouse tumor cell lines A20 and CT26 (mouse) (UniProt Q9EP73); experiment: flow cytometry, PE-labelled protein, 0.5 ug in 100 ul, A20 cells (high PD-L1), after Fc block; A20-Blank X-AMean 76.61
[2] = biological target: mouse PD-L1 on the surface of mouse tumor cell lines A20 and CT26 (mouse) (UniProt Q9EP73); experiment: flow cytometry, PE-labelled protein, 2.5 ug in 100 ul, A20 cells (high PD-L1), after Fc block; A20-Blank X-AMean 76.61
[3] = biological target: mouse PD-L1 on the surface of mouse tumor cell lines A20 and CT26 (mouse) (UniProt Q9EP73); experiment: flow cytometry, PE-labelled protein, 2.5 ug in 100 ul, CT26 cells (low PD-L1), after Fc block; CT26-Blank X-AMean printed 254.50
[4] = biological target: recombinant human PD-1 antigen (human) (UniProt Q15116); experiment: SPR (Biacore T200), antibody captured on anti-human IgG Fc CM5 chip, recombinant human PD-1 as analyte, 1:1 Langmuir fit
Sequence of UniProt Q15116 (Q15116 25-167 limits assumed): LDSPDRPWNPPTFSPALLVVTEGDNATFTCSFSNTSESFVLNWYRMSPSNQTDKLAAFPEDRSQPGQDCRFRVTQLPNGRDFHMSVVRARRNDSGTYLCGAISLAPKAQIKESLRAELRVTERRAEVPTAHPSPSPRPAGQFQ

[5] = biological target: recombinant human PD-L1 antigen (human) (UniProt Q9NZQ7); experiment: SPR (Biacore T200), antibody captured on anti-human IgG Fc CM5 chip, recombinant human PD-L1 as analyte, 1:1 Langmuir fit
Sequence of UniProt Q9NZQ7 (Q9NZQ7 19-238 limits assumed): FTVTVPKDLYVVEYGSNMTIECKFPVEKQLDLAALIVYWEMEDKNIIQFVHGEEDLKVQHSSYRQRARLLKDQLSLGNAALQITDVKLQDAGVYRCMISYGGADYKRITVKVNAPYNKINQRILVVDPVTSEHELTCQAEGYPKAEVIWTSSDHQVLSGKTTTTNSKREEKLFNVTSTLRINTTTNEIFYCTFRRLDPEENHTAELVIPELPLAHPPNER

Sequence of UniProt Q9EP73 (Q9EP73 19-290): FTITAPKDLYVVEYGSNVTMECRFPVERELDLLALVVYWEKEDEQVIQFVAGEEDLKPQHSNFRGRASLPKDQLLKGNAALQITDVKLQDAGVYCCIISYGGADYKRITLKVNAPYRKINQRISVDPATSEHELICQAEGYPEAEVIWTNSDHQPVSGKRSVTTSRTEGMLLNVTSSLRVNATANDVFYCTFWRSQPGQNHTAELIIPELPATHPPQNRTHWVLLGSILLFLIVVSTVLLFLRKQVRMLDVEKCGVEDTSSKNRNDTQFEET

Molecule | X-AMean [1] | X-AMean [2] | X-AMean [3] | further results
anti-PD-L1(10F.9G2) antibody-HC-mIL-10 fusion protein (from UniProt P18893 19-178) | 1830 | 5930 | 590 | –
rat-anti-mouse PD-L1 monoclonal antibody 10F.9G2 | 949 | 4990 | 885 | –
anti-human PD-1 antibody 7A4D (antibody, from another filing, V domains shown) VH: QIQLVQSGSELKKPGASVKVSCKASGYTFTNFGMNWVRQAPGQGLKWMGWISGYTREPTYAADFKGRFVISLDTSVSTAYLQISSLKAEDTAVYYCARDVFDYWGQGTLVTVSS VL: DIVLTQSPASLAVSPGQRATITCRASESVDNYGYSFMNWFQQKPGQPPKLLIYRASNLESGVPARFSGSGSRTDFTLTINPVEADDTANYYCQQSNADPTFGQGTKLEIKR | – | – | – | Kd [4]: 830 pM; koff [4]: 0.000806 s⁻¹; kon [4]: 974000 M⁻¹ s⁻¹
anti-human PD-L1 antibody 5G11 (antibody, from another filing, V domains shown) VH: QVQLKQSGPGLVQPSQSLSITCTVSGFSLTTYGVHWVRQSPGKGLEWLGVIWRGVTTDYNAAFMSRLTITKDNSKSQVFFKMNSLQANDTAIYYCARLGFYAMDYWGQGTSVTVSS VL: SIVMTQTPKFLLVSAGDRVTITCKASQSVSNDVAWYQQKPGQSPKLLIYYAANRYTGVPDRFTGSGYGTDFTFTISIVQAEDLAVYFCQQDYTSPYTFGGGTKLEIK | – | – | – | Kd [5]: 290 pM; koff [5]: 0.000779 s⁻¹; kon [5]: 2.65e+06 M⁻¹ s⁻¹
